The values that follow come from article PMC4133262, “Discovery of a Eukaryotic Pyrroloquinoline Quinone-Dependent Oxidoreductase Belonging to a New Auxiliary Activity Family in the Database of Carbohydrate-Active Enzymes” (PLoS ONE, 2014).

As usually defined, the Kd is the equilibrium constant for the complex coming apart. A higher Kd goes with weaker binding. Usually kcat stands for the number of substrate molecules converted per active site and unit of time at saturation. What is called kcat/Km is the second-order rate constant that governs catalysis at low substrate concentration.

One series concerns the target T1, PQQ domain of CcSDH (Coprinopsis cinerea, UniProt A0A0A8IDB7).
T1 construct: gene PDH; PQQ dehydrogenase domain only: N-terminal 221 residues (heme domain) and last 77 C-terminal residues (with CBM1) removed; begins at T222 (primer encodes TFVSC); secreted from Pichia pastoris
T1 sequence (A0A0A8IDB7 240-649): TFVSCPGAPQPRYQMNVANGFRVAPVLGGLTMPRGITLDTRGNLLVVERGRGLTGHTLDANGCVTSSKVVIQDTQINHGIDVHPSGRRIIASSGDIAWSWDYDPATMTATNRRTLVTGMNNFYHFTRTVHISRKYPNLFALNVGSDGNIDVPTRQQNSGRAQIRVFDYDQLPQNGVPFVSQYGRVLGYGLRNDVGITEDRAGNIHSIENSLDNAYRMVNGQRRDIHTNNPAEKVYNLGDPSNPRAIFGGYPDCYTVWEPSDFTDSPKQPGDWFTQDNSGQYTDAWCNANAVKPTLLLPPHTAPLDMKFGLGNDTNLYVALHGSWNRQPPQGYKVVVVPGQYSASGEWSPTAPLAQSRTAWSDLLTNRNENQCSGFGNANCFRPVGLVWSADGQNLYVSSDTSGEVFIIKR
As to the kind of experiment: isothermal titration calorimetry, single-site model. The format is binding.

Substrate in the series “purified protein”: O=CC(=O)[C@@H](O)[C@H](O)[C@H](O)CO
The series can be described thus: purified protein. It is filed as biochemical, Coprinopsis cinerea. The conditions noted are these: 50 mM Tris-HCl pH 8.5, 1 µM PQQ, 1 mM CaCl2, 50 µM cytochrome c, 30 °C, background reduction by D-glucosone subtracted.

Molecule `O=C(O)c1cc(C(=O)O)c2c(n1)C(=O)C(=O)c1cc(C(=O)O)[nH]c1-2` [Pyrroloquinoline quinone] came in with a dissociation constant (Kd) at PQQ domain of CcSDH of 1.11 nM.

B1: CcSDH (C. cinerea sugar dehydrogenase), full-length recombinant (Coprinopsis cinerea) (protein)
chain: QGSPTQWYDSITGVTFSRFYQQDTDASWGYIFPSASGGQAPDEFIGLFQGPASAGWIGNSLGGSMRNNPLLVGWVDGSTPRISARWATDYAPPSIYSGPRLTILGSSGTNGNIQRIVYRCQNCTRWTGGAGGIPTTGSAVFGWAFHSTTKPLTPSDPSSGLYRHSHAAQYGFDIGNARTTLYDYYLQQLTNAPPLSGGAPTQPPTQQPPTTTAPPPPPPSSTFVSCPGAPQPRYQMNVANGFRVAPVLGGLTMPRGITLDTRGNLLVVERGRGLTGHTLDANGCVTSSKVVIQDTQINHGIDVHPSGRRIIASSGDIAWSWDYDPATMTATNRRTLVTGMNNFYHFTRTVHISRKYPNLFALNVGSDGNIDVPTRQQNSGRAQIRVFDYDQLPQNGVPFVSQYGRVLGYGLRNDVGITEDRAGNIHSIENSLDNAYRMVNGQRRDIHTNNPAEKVYNLGDPSNPRAIFGGYPDCYTVWEPSDFTDSPKQPGDWFTQDNSGQYTDAWCNANAVKPTLLLPPHTAPLDMKFGLGNDTNLYVALHGSWNRQPPQGYKVVVVPGQYSASGEWSPTAPLAQSRTAWSDLLTNRNENQCSGFGNANCFRPVGLVWSADGQNLYVSSDTSGEVFIIKRMSGPIVQPPITQPPITTSPPTPTTPPVVQPPTTVAPPQASQTLWGQCGGQGWTGPTLCPANSVCRESNQWYSQCVPA
notes: mature protein without 18-residue signal peptide (726-aa ORF); AA8 cytochrome b + PQQ dehydrogenase + CBM1 domains; secreted from Pichia pastoris (pPICZalpha), glycosylated, 98 kDa on SDS-PAGE; genome locus Chromosome 6:1274274-1277156
Consider B1, for which, in “purified protein”, the Km was 7.9 (±0.3) mM, the kcat was found to be 74.1 ± 1.4 s⁻¹ and the kcat/Km is 9370 M⁻¹ s⁻¹.
